The record followed here is the nanobody polyreactivity screen of Harvey et al. (2022).

A short description of this data set: yeast display, Sf9 membrane polyspecificity reagent, FACS + sequencing; frameworks hold sequencing errors. An outline of the steps: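 Nanobodies came from a synthetic yeast display library in Saccharomyces cerevisiae BJ5465, induced with galactose for 36–48 hours and stained for 1 hour at 4 °C with 10% biotinylated, detergent-solubilized Sf9 membrane reagent. Cells were enriched on streptavidin microbeads and then FACS-sorted, with low and high (top ~1%) gates set on anti-HA fluorescence for expression and streptavidin fluorescence for reagent binding. Each polyreactivity label reflects the gate a clone came from. Genes were amplified by colony PCR, sequenced by MiSeq 2 × 250 and filtered by CDR length.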
“QVQLVESGGGLVQAGGSLRLSCAASGITFQSNAMGWYRQAPGKERELVAAIDWRGDSTYYADSVKGRFTISRDNAKNTVYLQMNSLKPEDTAVYYCNADISGSGQWDGYDYWGQGTQVTVSS”: the “polyreactivity (PSR sort gate)” value was “low polyreactivity”.
On to “QVQLVESGGGLVQAGGSLRLSCAASGGIFRYYAMGWYRQAPGKERELVAAISRSTRTYYADSVKGRFTISRDNAKITVYLQMNSLKPEDTEVYYCAAKYVSRRYSRYNYWGQGTQVSVSS”, for which the “polyreactivity (PSR sort gate)” value was “high polyreactivity”.
In the case of “QVQLGESGGVLVQAGGSLSLSCAASGNIFGRYAMGWYRQAPGKEWELVAANTRSAGSTYYADSVKGRFTISRDNEKTTVYFQMNSLKPEDTAVYYCAAAHWGYAYRRYGYGGQGTQVTVSS”, the “polyreactivity (PSR sort gate)” value is listed as “high polyreactivity”.
As for “QVQLVESGGGLVQAGGSLRLSCAASGRNFQWYSMGWSRQAPGKEREFVAAIRYSGGSTYYADSVKGRFTISRDNAKNTVYLQMNSMKPEDTSVYYCNARTGFLARNKRFGYWGQGTQVSVSS”, the entry is “high polyreactivity”.
With “QVQLQESGGGLVQAGGILRLSCAACGNIFPSAVMGWYRQALGKEREFVATINSGSNTYYADSVKGRFTISRDNAKNTVYLQMNSLNLEDNAVYYCAAYFKLPAWHTYWGQGTQVTVSS” the entry was “low polyreactivity”.
As to “QVQLVESGGGLVQAGGSLRLSCAASGITFWTYTMGWYRQAPGTERELVAAISKRGGSTYYADSVKGRFTISRDNAKNSVYLQMNSLKPEDTAVYYCAATYSYRFSSFDYWGQGTQVTVSS”, the “polyreactivity (PSR sort gate)” value is listed as “high polyreactivity”.
As for “HVQLVESGVGLVQAGGSLRLSCAASGSTFDGYLMGWYRQAPGKERELVAAISRSGGSTYYADSVKGRFTIARDNAKNTVYLQMNSLKPEDTAVYYCAARNSPGLPGDYWGQGTQVTVSS”, the “polyreactivity (PSR sort gate)” value is on record as “high polyreactivity”.
As to “QVQLVESGGGLVQAGGSLRLSCAASGFIFLRYGMGWYRQAPGKERELVASIDSSGGSTYADSVKGRFTISRDNEKNTVFLQMKSLKPEDTAVYYCAADYYIVSVRDYWGQGTQVTVSS”, the “polyreactivity (PSR sort gate)” value is recorded as “low polyreactivity”.
For the sequence “QVQLVESGGGLVQAGGSLRLSCAASGYTFLGYAMGWYRQAPGKERELVAAIRRSGGRTYYADSVKGRFTISRDNAKNTVYLQMNSLKPEDTAVYYCAKGYVGEYDYWGQGTQVTVSS”, the “polyreactivity (PSR sort gate)” value is on record as “high polyreactivity”.
As for “QVQLVESGGGLVQAGGSLRLRCAASGRIFRPYTMGWYRQAPGKERELVAGITSSGGGTYYADSVKGRFTISRDNAKNTVYLHMNSLKPEDSAVYYCNRRGWSRTHQYDYWGQGTQVTVSS”, the entry is “high polyreactivity”.
With “QVHLVESGGGLVQAGGSLRLSCAASGNIIPGNAMGWYRQAPGKERELVAAISYSGVRTHYADSVKGRFTISRDNAKNTVYLQMNSLKPEDTAVYYCAASGEQDYDYWGQGTQVTVSS”, the “polyreactivity (PSR sort gate)” value is “low polyreactivity”.
Consider “QVQLVESGGGLVQAGGSLRLSCAASGFTLGDNAMGWSRQAPGKERELVAAISGGGSSTYYADSVKGRFTISRDNAKNTVYLQMNSLKPEDTAVYYCAADYYFSTYYSRYYFWGQGTQVTVSS”, for which the “polyreactivity (PSR sort gate)” value is listed as “low polyreactivity”.
Turning to “QVQLVESGGGLVQAGGSLRLSCAASGRIFNAYAMGWYRQAPGKERELVAAITDDGGTNYADSVKGRFTISRDNAKNTVYLQMNSLKPEDTAVYYCAATYLIGYYYVWEYDYWGQGTQVTVSS”, the “polyreactivity (PSR sort gate)” value was “low polyreactivity”.
Turning to “QVQLVESGGGLVQAGGSLRLSCAASGRTFLTNAMGWYRQAPGKERELVAAISGGGDDTFYADSVKGRFTISRDNAKNTVYLQMNSLKPEDTAVYYCAADWYTPGWRKEEEYWGQGTQVTVSS”, the “polyreactivity (PSR sort gate)” value was “low polyreactivity”.
“PVQLVESGGGLVQAGGSLRLTCAASGRIFTGYAMGWYRQAPGKERELVAAISRGGSTNYADSVKGRFTISRDNEKNTVYLLMNSLKPEDTAFYYCAAGFDWDRGDYWGQGTQVTVSS”: the “polyreactivity (PSR sort gate)” value is listed as “low polyreactivity”.
As for “QVQLVESGGGLVQAGVSLRLSCAASGLIFWAYAMGWYRQAPGKERELVAAINSGGRTYYADSVKGRFTISRDNAKNTVYLQMNSLKPEDTAVYYCAAAGVYSSDYWGQCTQVTVSS”, the “polyreactivity (PSR sort gate)” value is “low polyreactivity”.
Take “QVQLVESGGGLVQAGGSLRLSWAASGFTFGVNTMGWYRQAPGKERELVADISSGGRTNYADSVKGRFTISRDNAKNTVYLQMNRLKPEDTAVYYCAADNYSGTETDLTTLLDYWGQGTQVSVSS”: the “polyreactivity (PSR sort gate)” value is “low polyreactivity”.
“QVQLVESGGGLVQAGGSLRLSCAASGLIFRRYAMGWYRQAPGKERELVAAITRNGGSTYYADSVKGRFTISRDNAKNTVYLQMNSLKPEDTAVYYCAADRYRRRGGLDYWGQGTQVTVSS”: the “polyreactivity (PSR sort gate)” value is “high polyreactivity”.
As for “QVQLVESGGGLVQAGGSLRLSCAASGSIFIGYAMGWYRQSPGKERELVAAINDSGDRTYYADSVKGRFTISRDNAKNTVYLQMNSLKPEDTAVYYCAADLVSLDPEYDYWGQGTQVTVSS”, the “polyreactivity (PSR sort gate)” value is reported as “low polyreactivity”.
With “QVQLVESGGGLVQAGGSLRLICAASGYIFYAYALGWYRQAPGKERELVAAITDNGVSTFYADSVKGRFTISRDNAKNTVYLHMKSLKPEETAVYYCATSSTHSRGDEYWGQGTQVTVSS”, the “polyreactivity (PSR sort gate)” value is given as “low polyreactivity”.
In the case of “QVQLVESGGGLVQAGGSLRLSCAASGSTFPYYAMGWYRQAPGKERELVAAITSGGSTNYADSVKGRFTISRDNAKNTVYLQMNSLKPEDTAVYYCNADTTYLSDYVTFDYWGQGTQVTVSS”, the “polyreactivity (PSR sort gate)” value is reported as “low polyreactivity”.
As for “QVQLVESGVGLVQAAGSLRLSCASSGIICGEYAMGWYRQAPGNERELVAAISGSGSRTYYADSVKVRFTISRDIAKNTVFLQMNRLKPEDTAVYYCNSRRYIYNYDYWGQGTQVTVSS”, the “polyreactivity (PSR sort gate)” value is listed as “high polyreactivity”.
Consider “QVQLVESGGGLVQAGGSLRLICAAYGGIFISYAMGWYRQAPWKERELVAAINYSGGSTNYADSVKGRFTLSRDNAKNTVYLQMNSLKPEDTAVYYCAARSTARYGYWGQGTQVTVSS”, for which the “polyreactivity (PSR sort gate)” value was “low polyreactivity”.
Turning to “QVQLVESGGGLVQAGGSLRLSCDASGRTYTGYAIGWYRQAPGKERELVAAISKSGGRTYYADSVKGRFTISRDYAKNTVYLQMNSLKPEDTAVYYCAKVETFLQIAYRRGYDSWGQGTQVTVSS”, the “polyreactivity (PSR sort gate)” value is “low polyreactivity”.
“QVQLVESGGGLVQAGGSLRLSCAASGITFVWNAMGWYRQAPGKERELVATISRGGVRTYYADSVKGRFTISRDNAKNTVYLQMNSLKPEDTAVYYCNKRYWYPSSLHWTSFRGYDYWGQGTQVTVSS”: the “polyreactivity (PSR sort gate)” value was “low polyreactivity”.
With “QVQLVESGGGLVQAGGSLRLSCAASGRTFSTNAMGLYRQAPGKEREFVAAITGSGGSTYYADSVKGRFTISRDNAKNTVYLQINSLKPEDTAVYYCAKRSAWHTYRYGYWGQGTQVTVSS” the entry was “high polyreactivity”.
In the case of “QVPLVESGGGLVLAGGSLRLSCAASGSTVDDNAMGWYRQAPGKVRELVAGISTNGGSTSYADSVKGRITISRDNAKNTVYLQMNSRKPEHTAVYYSAKGLYVQFDYWGQGTQVTVSS”, the “polyreactivity (PSR sort gate)” value was “low polyreactivity”.
For the sequence “QVQLVESGGGLVQAGGSLRLSCAASGSTLVANAMGWYRQAPGKERELVAAISSGGITYYADSVKGRFTISRDNAKNTVYLQMHSLKPEDTAVYYCAARIRGTWKYGYWGQGTQVTVSS”, the “polyreactivity (PSR sort gate)” value is “low polyreactivity”.
Regarding “QVQLVESGGGFVQAGGSLRLICAASGRIFGYYAMAWYRQAPGQERELVAAINWGGGITYYADSVKGRFTISRDNAKNTVYLQMNSLKPEDTAVYYCATDYKLVYSIYDYWGQGTQVTVSS”, the “polyreactivity (PSR sort gate)” value is reported as “low polyreactivity”.
Regarding “QVQLVESGGGLVQAGGSLRLSSAASGRTFSAYAMGWYRQAPGKERELVARITSVDSTNYADSVKGRFTISRDNAKNTVYLQMNSLKPEDTAVYYCNVVNEHQSDFVVPFDYNHWGQGTQVTVSS”, the “polyreactivity (PSR sort gate)” value is given as “low polyreactivity”.
Turning to “QVQLVESGGGLVQAGGSLRLSCAASGFTFRKNAMGWYRQAPGKERELVAAISRRGGRTYYADSVKGRFTISRDNAKNTVYLQMNSLKPEDSAVYYCNDDEYGGSSGRKGRYNYWGQGTQVTVSS”, the “polyreactivity (PSR sort gate)” value is “low polyreactivity”.
Consider “QVQLVESGGGLVQAGGSLRLSCAASGSTFQGYAMGWYRQAPGKERELVAAISRSGSGTYYADSVKGRFTISRDNAKNTVYLQMNSLKPEDTAVYYCAKDDVRRSTSRHYYYWGHGTQVTVSS”, for which the “polyreactivity (PSR sort gate)” value was “high polyreactivity”.
Consider “QVQLVESGGGLVQAGGSLRLSCAASGRIFWDNAMGWYRQAPGKERELVAAISDSVVITYYADSVKGRFTISRDTAKNTVYLQMNSLKPEDTAVYYCGADKRGTVYLSSFWMDYWGQGTQVTVSS”, for which the “polyreactivity (PSR sort gate)” value is given as “low polyreactivity”.
With “QVQLVESGGGLVQAGGSLRLSCAASGSTFNYYAMGWYRPAPGKERELVAAISWSGGSTYYADSVKGRFTISRDNAKNTVYLQMNSLKPEDTAVYYCAAYPARPWARGDRRRIRFWGQGTQVTVSS” the entry was “high polyreactivity”; with “QVQLEESGGGLVQAGGSLRLSCAASGFTFTPNAMGWYRQAPGKERELVAAINWSGGRTYYADSVKGRFTISRDNAKNTVYLQMNSLKPEDTAVYYCNVLKGRSYYPGMDYWGQGTQVTVSS”, “high polyreactivity”; with “QVQLVESGGGLVQAGGSLRLSCAASGRTFRYYTMGWYRQAPGKEREFVAAISSTGGTYYADSVKGRFTISRDNAKNTVYLLMNSLKPEDTAFYYCAATFIQVVVNVQLYDYDYWGQGTQVTVSS”, “low polyreactivity”.
Regarding “QVQLVESGGGLVQAGGSLRLICAASGSILDGNTMGWYRQAPGKERELVAAITWDGTSTYFADSVKGRFTISRDNAKNTVYLQMNSLKPEDTAVYYCAATKGYSDPSTGYYAYIHYDYWGQGTQVTVSS”, the “polyreactivity (PSR sort gate)” value is on record as “low polyreactivity”.
Consider “QVQIVESGGGLVQAGGSLRLSCAASGSIFGYAMGWYRPAPGKERELVAAISFSGVSTYYADSVKGRFTISRDNAKNTVYLQMNSLKPEDTAVYYCNAYSDGDEDYWGQGTQVTVSS”, for which the “polyreactivity (PSR sort gate)” value was “low polyreactivity”.
As for “QVQLVESGGALVQAGGSLSLSCAASGFIFQPYAMGWYRQAPGKERELVAAITSRGGRTYYADSVMGRFTISRDNAKNTVYLQMNSLKPEDSAVYYCNADIYASEYYYWGQGTQVTVSS”, the entry is “low polyreactivity”; as for “QVQLVESGGGLVQAGGSLRLSCAASGLTFPYYAMGWYRQAPGKEREFVAAISRGGGRTSYADSVKGRFTISRDNAKNTVYLQMNSLKPEDTAVYYCAADDPGWYSDLYYYWGLGTQVTVSS”, “high polyreactivity”.
Consider “QVQLVESGGGLVQAGGSLRLSCAASGSIFYGYAMGWYRQAPGKERELVASITSSGGSTYYADSVKGRFTISRDNAKNTVYLQMNSLKPEDTAVYYCNADGRPDWYVVRGGFEYWGQGTQVTVSS”, for which the “polyreactivity (PSR sort gate)” value is “low polyreactivity”.
